Measured values taken from publication PMC8371321, “A Novel Z-Ring Associated Protein ZapA-Like Protein (PA5407) From Pseudomonas aeruginosa Promotes FtsZ to Form Double Filaments” (Frontiers in Microbiology, 2021).

T1: FtsZ from Pseudomonas aeruginosa (P. aeruginosa, UniProt P47204 1-394)
T1 construct: FtsZ, Pseudomonas aeruginosa; pET15b containing the entire ftsZ gene (NdeI/BamHI); His6 tag removed with thrombin; The construct is from Chen et al., 2012; Residues of the vector may be left after the thrombin cut; Forms protofilaments with GTP; also called PaFtsZ; source: E. coli BL21(DE3), purified (Talon column, thrombin, source Q column)
T1 sequence (looked up): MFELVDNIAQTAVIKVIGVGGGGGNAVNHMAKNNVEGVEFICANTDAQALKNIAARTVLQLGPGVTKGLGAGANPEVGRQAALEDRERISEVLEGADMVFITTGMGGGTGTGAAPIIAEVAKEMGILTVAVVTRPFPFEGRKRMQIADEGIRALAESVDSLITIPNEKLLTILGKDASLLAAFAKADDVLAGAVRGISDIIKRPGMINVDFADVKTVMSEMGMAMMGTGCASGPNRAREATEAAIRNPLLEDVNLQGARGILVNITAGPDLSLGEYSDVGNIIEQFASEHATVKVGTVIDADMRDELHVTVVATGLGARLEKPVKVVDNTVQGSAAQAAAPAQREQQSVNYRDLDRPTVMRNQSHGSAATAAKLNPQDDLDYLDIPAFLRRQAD

B1: ZapA (PA5227) from Pseudomonas aeruginosa (natural protein, P. aeruginosa, UniProt Q9HTW3 1-104, looked up)
chain: MSQSNTLTVQILDKEYCINCPDDERANLESAARYLDGKMREIRSSGKVIGADRVAVMAALNITHDLLHRKERLDQESSSTRERVRELLDRVDRALANPADAGEA
notes: pET15b containing the entire zapA gene (NdeI/BamHI); The construct is from Rahman et al., 2020; Stored and used with the His6 tag; also called PA5207; source: E. coli BL21(DE3), purified (Talon column)
B2: ZapA-Like protein (ZapAL; PA5407) from Pseudomonas aeruginosa (natural protein, P. aeruginosa, UniProt Q9HTF7 1-96, looked up)
chain: MSRDGVQVLSILGRDYSIRVPAGEERALADAAALLQAEVDANKRKFPYVTSNELVVLSALNLCARQLGANDGESPRLRAVEQRLEALVERIAGASG
notes: ZapA-Like protein ZapAL (PA5407), Pseudomonas aeruginosa, 96 amino acids; pET15b containing the entire zapAL gene (NdeI/BamHI); Stored and used with the His6 tag; also called ZapL; source: E. coli BL21(DE3), purified (Talon column)

Tests used:
[1] = molecular target: T1, FtsZ from Pseudomonas aeruginosa; assay: light scattering; FtsZ with ZapAL, ZapA or a 1:1 mixture of both, mixed with 1 mM or 0.1 mM GTP, HMK buffer (50 mM HEPES pH 7.5, 5 mM MgAc, 100 mM KAc), room temperature, 340 nm; settings: both partners purified
[2] = molecular target: T1, FtsZ from Pseudomonas aeruginosa; assay: co-sedimentation; 15 uM FtsZ with 15 or 30 uM ZapAL, 1 mM GTP, 10 min at room temperature, 80,000 rpm for 30 min at 25 C (Beckman TLA100); pellet and supernatant by SDS-PAGE and ImageJ; settings: both partners purified

| Binder | binding result [1] | stoichiometry N [2] |
| --- | --- | --- |
| B1 | binds |  |
| B2 |  | ~1 FtsZ:ZapAL (molar ratio) |
